Experiments:
[1] = test system: gastric adenocarcinoma; test: Gastric cancer patient with stage IV metastatic disease treated with IMMU-130 (Example 6); format: in vivo, human
Protocol: The patient is a person who sought medical attention because of gastric discomfort and pain related to eating for about 6 years, and with weight loss during the past 12 months. […] The patient has their gastric tumor resected, and then has baseline CT measurements of their metastatic tumors.
The patient is then given experimental therapy with IMMU-130 (anti-CEACAM5-SN-38) on a weekly schedule of 8 mg/kg. […] The patient then undergoes a CT study to measure their metastatic tumor sizes and to view the original area of gastric resection.

[2] = test system: LS174T human colon carcinoma; test: In vivo therapy of athymic nude mice bearing LS174T colon carcinoma xenografts; settings: LS174T s.c. xenograft, FIG. 2
Protocol: FIG. 2. In vivo therapy of athymic nude mice, bearing LS174T human colon carcinoma, with hMN-14-CL2A-SN-38 conjugate.
(§1) The efficacy of drug-conjugated Class III anti-CEA antibody was investigated. Immunoconjugates comprising antibody-SN-38 conjugates were prepared as discussed in U.S. Pat. No. 7,999,083, the Figures and Examples sections of which are incorporated herein by reference. Immune-compromised athymic nude mice (female), bearing subcutaneous human pancreatic or colon tumor xenografts were treated with either specific CL2A-SN-38 conjugate or control conjugate or were left untreated. The therapeutic efficacies of the specific conjugates were observed.

[3] = test system: Capan 1 human pancreatic carcinoma; test: In vivo therapy of athymic nude mice bearing Capan 1 pancreatic tumor xenografts with antibody-CL2A-SN-38 conjugates; settings: Capan 1 s.c. xenograft, FIG. 1
Protocol: FIG. 1. In vivo therapy of athymic nude mice, bearing Capan 1 human pancreatic carcinoma, with antibody-CL2A-SN-38 conjugates.
as §1

[4] = test system: metastatic colonic cancer (Stage IV); test: Therapy of a patient with advanced colonic cancer with IMMU-130 (Example 5); format: in vivo, human
Protocol: This patient is a person initially diagnosed with metastatic colonic cancer (Stage IV). […] Their baseline CEA titer just before this therapy is 15 ng/mL. […] The patient continues their investigational therapy.

[5] = test system: advanced metastatic colon cancer; test: Therapy of advanced metastatic colon cancer with anti-CEACAM5 immunoconjugate (Example 9); format: in vivo, human; settings: 12 mg/kg every other week, irinotecan-unresponsive
Protocol: The patient is a person who fails prior therapies for metastatic colon cancer. The first line of therapy is FOLFIRINOX+AVASTIN® (built up in a stepwise manner) starting with IROX (Irinotecan+Oxaliplatin) in the first cycle. […] This is followed by surgery to remove tumor tissue. […] This leads to the initiation of the second line regimen (FOLFIRI+Cetuximab). […] Then RF ablation of liver metastases is performed, followed by continuation of adjuvant chemotherapy with FOLFIRINOX+Cetuximab, followed by maintenance Cetuximab for approximately one year. […] This leads to a wedge resection of the lung nodules. Subsequently FOLFIRI+Cetuximab is restarted and continued. Later CT scans show both lung and liver metastases.
At the time of administration of the hMN-14-SN-38 immunoconjugate, the patient has advanced metastatic colon cancer, with metastases of both lung and liver, which is unresponsive to irinotecan (camptothecin). The hMN-14-SN-38 immunoconjugate is administered at a dosage of 12 mg/kg, which is repeated every other week.
The effect of the antibody moiety in improved targeting of the camptothecin accounts for the efficacy of the SN-38 moiety in the cancer that had been previously resistant to unconjugated irinotecan.

[6] = test system: rectal carcinoma; test: Continuous infusion of labetuzumab-SN-38 in patient with liver metastases of rectal carcinoma (Example 8); format: in vivo, human
Protocol: The patient was previously resected for a rectal carcinoma and receives pre- and post-operative radiochemotherapy as per conventional treatment. […] They then receive a repeat continuous infusion therapy 5 weeks later, now for 3 weeks, at 1 mg/kg.

[7] = test system: stage-IV metastatic colonic cancer; test: Therapy of advanced colon cancer patient refractory to prior chemo-immunotherapy with IMMU-130 (Example 4); format: in vivo, human
Protocol: Thereafter, they were given courses of cetuximab, either alone or combined with FOLFIRI (leucovorin, 5-flurouracil, irinotecan) chemotherapy during the next year or more. […] The index lesions chosen by the radiologist for measuring tumor size change by computed tomography were the mid-lobe of the right lung and the liver metastases, both totaling 91 mm as the sum of their longest diameters at the baseline prior to IMMU-130 (anti-CEACAM5-SN-38) therapy.
This patient received doses of 16 mg/kg of IMMU-130 by slow IV infusion every other week for a total of 17 treatment doses.

[8] = test system: GW-39 human colonic tumor; test: In vivo therapy of lung metastases of GW-39 human colonic tumors in nude mice; settings: 250 μg, q4d×8, therapy initiated 14 days after i.v. tumor injection
Protocol: FIG. 3. Survival curves of hMN14-CL-SN-38 treated mice bearing GW-39 lung metastatic disease.
Alternative immunoconjugates, comprising different linkers between the antibody and the SN-38, were prepared as disclosed in U.S. Pat. No. 7,591,994, the Figures and Examples section of which are incorporated herein by reference. A lung metastatic model of colonic carcinoma was established in nude mice by i.v. injection of GW-39 human colonic tumor suspension, and therapy was initiated 14 days later. Specific anti-CEACAM5 antibody conjugates, hMN14-CL1-SN-38 and hMN14-CL2-SN-38, as well as nontargeting anti-CD22 antibody control conjugates, hLL2-CL1-SN-38 and hLL2-CL2-SN-38 and equidose mixtures of hMN14 and SN-38 were injected at a dose schedule of q4d×8, using different doses. […] The dose-responsiveness of therapeutic effect of conjugated antibody was also observed.

[9] = test system: metastatic colon cancer; test: Treatment of metastatic colon cancer with P2PDox conjugate of Class III anti-CEA antibody (Example 11); format: in vivo, human; settings: 8 weeks from treatment begin
Protocol: A prodrug form of 2-pyrrolinodoxorubicin, referred to herein as “P2PDox”, is prepared and conjugated to the hMN-14 antibody as disclosed in U.S. patent application Ser. No. 14/175,089, the Figures and Examples sections of which are incorporated herein by reference.
A person with metastatic colon cancer (3-5 cm diameters) to their left and right liver lobes, as well as a 5 cm metastasis to their right lung, and an elevated blood CEA value of 130 ng/mL, is treated with a 150 mg dose of hMN-14 Class III anti-CEA antibody conjugated to P2PDox at 4 drug molecules per IgG, administered by slow intravenous infusion every other week for 4 doses. […] At the same time, their blood CEA titer is reduced to 30 ng/mL. Repeated courses of therapy continue as their neutropenia normalizes.

[10] = test system: LS174T human colon adenocarcinoma; test: Biodistribution of 131I-labelled humanized MN-14 IgG in nude mice bearing human colon cancer; format: in vivo
Protocol: The biodistribution of labeled humanized MN-14 IgG in nude mice bearing human colon cancer was determined. For radiolocalization studies, at 4-5 weeks female athymic mice (nu/nu, Harlan, Indianapolis, Ind.) were given s.c. 0.2 ml of a 10% suspension of LS174T human colon adenocarcinoma prepared from a xenograft serially propagated in an athymic mouse (Sharkey et al., Cancer Res., 50: 828-34 (1990)). After waiting 2 weeks for tumor development, the mice were injected i.v. with 20 μCi (about 2 μg) of ^131I-labelled humanized MN-14 antibodies. Groups of 4-5 mice were sacrificed at intervals thereafter, and radioactivity localized in tissues. […] Tumor:nontumor ratios were excellent.

[11] = compared with rituximab; cited from earlier work
[12] = 131I-labelled, i.v., nude mice bearing LS174T

**Q.** With IMMU-130 as the substance, how does the diarrhea ([1]; 8 mg/kg weekly, after 3 weeks) read?
**A.** grade 1

**Q.** What about the neutropenia ([1]; 8 mg/kg weekly, after 3 weeks) of the same substance?
**A.** grade 2

**Q.** What about the “decrease of the sum of the metastatic lesions (CT, RECIST) vs. baseline” value ([1]; 8 mg/kg weekly, first CT study on therapy) of the same substance?
**A.** 23%

**Q.** What about the “decrease of the sum of all metastatic lesions (CT)” value ([1]; after a total of 13 infusions) of the same substance?
**A.** 41%

**Q.** What about the “response by RECIST” value ([1]; after a total of 13 infusions) of the same substance?
**A.** partial response

**Q.** And the CEA titer ([1]; at first CT study, pre-IMMU-130 baseline 14.5 ng/mL)?
**A.** 7.2 ng/mL

**Q.** What about the “blood CEA” value ([1]; last measurement, after maintenance therapy every third week) of the same substance?
**A.** 4.8 ng/mL

**Q.** What about the therapeutic efficacy [2] of the same substance?
**A.** more efficacious than non-treatment

**Q.** What about the therapeutic efficacy [3] of the same substance?
**A.** better efficacies than control hA20-CL2A-SN-38 conjugate

**Q.** What about the tolerability ([4]; 6 mg/kg twice weekly for 2 weeks, one week rest, more than 20 doses) of the same substance?
**A.** tolerated very well, without any major hematological or non-hematological toxicities

**Q.** What about the “shrinkage of the index tumor lesions” value ([4]; 8-week evaluation) of the same substance?
**A.** 21%

**Q.** And the “ascites and pleural effusion” value ([4]; 13 weeks)?
**A.** both decrease

**Q.** What about the “shrinkage of the index tumor lesions” value ([4]; 13 weeks) of the same substance?
**A.** 27%

**Q.** What about the “plasma CEA titer” value ([4]; within 2 months of therapy, baseline 15 ng/mL) of the same substance?
**A.** 1.3 ng/mL

**Q.** What about the “response by RECIST criteria” value [5] of the same substance?
**A.** partial response

**Q.** What about the “liver metastases by CT” value ([6]; continuous infusion 2 mg/kg over 17 days, then 1 mg/kg for 3 weeks, three weeks later) of the same substance?
**A.** 1 of the liver metastases has disappeared

**Q.** What about the “blood CEA titer” value ([6]; three weeks after second infusion, 6.3 ng/mL before) of the same substance?
**A.** 2.4 ng/mL

**Q.** What about the nausea and vomiting ([6]; while under therapy) of the same substance?
**A.** grade 2

**Q.** What about the neutropenia ([6]; while under therapy) of the same substance?
**A.** grade 2

**Q.** What about the “side effects (nausea, diarrhea, fatigue)” value ([7]; 16 mg/kg IV every other week, after the first treatment and treatments 4 and 5) of the same substance?
**A.** grade 1 nausea, diarrhea and fatigue

**Q.** And the “duration of fatigue after the first infusion” value ([7]; 16 mg/kg every other week)?
**A.** 2 weeks

**Q.** And the “duration of nausea, diarrhea and occasional vomiting” value ([7]; 16 mg/kg every other week)?
**A.** 2 to 3 days

**Q.** What about the alopecia ([7]; 16 mg/kg every other week, after treatment 3) of the same substance?
**A.** grade 2

**Q.** And the “change of sum of index lesions (CT) from baseline” value ([7]; after 4 treatments, 16 mg/kg every other week)?
**A.** 28.6%

**Q.** And the “reduction of sum of index lesions (CT) from baseline” value ([7]; after 8 treatments)?
**A.** 40.6%

**Q.** And the “response according to RECIST criteria” value ([7]; after 8 treatments)?
**A.** partial remission

**Q.** What about the “anti-labetuzumab antibody in blood” value ([7]; after 16 doses) of the same substance?
**A.** none was detected

**Q.** What about the “plasma CEA titer” value ([7]; after the third therapy dose, baseline 12.6 ng/mL) of the same substance?
**A.** 2.1 ng/mL

**Q.** And the “index lesions less than baseline (CT)” value ([7]; another 2 months after the 8-treatment evaluation)?
**A.** 31.9%

**Q.** For “hLL2-CL1-SN-38: nontargeting anti-CD22 antibody control conjugate”, which median survival [8] is on record?
**A.** 56 days

**Q.** For “hLL2-CL2-SN-38: nontargeting anti-CD22 antibody control conjugate”, which median survival [8] is on record?
**A.** 77 days

**Q.** What does the source list for “hMN-14 Class III anti-CEA antibody conjugated to P2PDox”?
**A.** reduction of the total mean diameters of the 3 target lesions (CT) ([9]; 150 mg every other week for 4 doses): 25%; response by RECIST1.1 criteria [9]: good stable disease response; blood CEA titer ([9]; 130 ng/mL before): 30 ng/mL

**Q.** With “hMN-14: humanized Class III anti-CEA (anti-CEACAM5) antibody; heavy and light chains SEQ ID NO:1 and SEQ ID NO:2” as the substance, how does the “time of maximum tumor accretion” value [10, 12] read?
**A.** ≤ 2 days

**Q.** What about the “tumor accretion of the antibody” value [10, 12] of the same substance?
**A.** excellent tumor accretion

**Q.** And the “Tumor:nontumor ratios” value ([10]; 131I-labelled, nude mice bearing LS174T)?
**A.** excellent

**Q.** And the “uptake by the spleen” value ([10]; compared with mMN-14)?
**A.** higher uptake of hMN-14 by the spleen than there was of mMN-14

**Q.** What about the blood clearance ([10]; compared with parental mMN-14) of the same substance?
**A.** more rapid than the parental mMN-14 antibody

**Q.** Which therapeutic efficacy [3] does the source give for hRS7-CL2A-SN-38 here?
**A.** better efficacies than control hA20-CL2A-SN-38 conjugate

**Q.** With “veltuzumab: humanized IgG1 antibody against CD20” as the substance, how does the immunogenicity in subjects [11] read?
**A.** less immunogenic in subjects than rituximab
